B1: VSTB116 (antibody, V domains shown)
VH: QVQLVQSGAEVKKPGSSVKVSCKASGGTFSSYAISWVRQAPGQGLEWMGGIIPIFGTANYAQKFQGRVTITADESTSTAYMELSSLRSEDTAVYYCARSSYGWSYEFDYWGQGTLVTVSS
VL: DIQMTQSPSSLSASVGDRVTITCRASQSINTNLNWYQQKPGKAPKLLIYAASSLQSGVPSRFSGSGSGTDFTLTISSLQPEDFATYYCQQARDTPITFGQGTKVEIKR
B2: VSTB50 (antibody, human IgG1, V domains shown)
VH: QVQLVQSGSELKKPGASVKVSCKASGYTFTNYGLNWVRQAPGQGLEWMGWINPYTGEPTYADDFKGRFVFSLDTSVSTAYLQICSLKAEDTAVYYCAREGYGNYIFPYWGQGTLVTVSS
VL: DIVMTQTPLSLSVTPGQPASISCRASESVDTYANSLMHWYLQKPGQPPQLLIYRASNLESGVPDRFSGSGSGTDFTLKISRVEAEDVGVYYCQQTNEDPRTFGQGTKLEIK
B3: VSTB53 (antibody, human IgG1, V domains shown)
VH: QVQLVQSGAEVKKPGASVKVSCKASGYTFTHYTIHWVRQAPGQGLEWMGYIIPSSGYSEYNQKFKDRVTMTRDTSTSTVYMELSSLRSEDTAVYYCARGAYDDYYDYYAMDYWGQGTLVTVSS
VL: DIVMTQSPLSLPVTPGEPASISCRSSQTIVHSNGNTYLEWYLQKPGQSPQLLIYKVSNRFSGVPDRFSGSGSGTDFTLKISRVEAEDVGVYYCFQASHVPWTFGQGTKLEIK
B4: VSTB95 (antibody, human IgG1, V domains shown)
VH: EVQLVESGGGLVQPGGSLRLSCAASGFTFRNYGMSWVRQAPGKGLEWVASIISGGSYTYYPDSVKGRFTISRDNAKNSLYLQMNSLRAEDTAVYYCARIYDHDGDYYAMDYWGQGTTVTVSS
VL: DIVMTQSPLSLPVTPGEPASISCRSSQSIVHSNGNTYLEWYLQKPGQSPQLLIYKVSNRFSGVPDRFSGSGSGTDFTLKISRVEAEDVGVYYCFQGSHVPWTFGQGTKLEIK

This assay has as its target T1, human VISTA on the surface of cells (human, UniProt Q9H7M9 33-295).
T1 sequence: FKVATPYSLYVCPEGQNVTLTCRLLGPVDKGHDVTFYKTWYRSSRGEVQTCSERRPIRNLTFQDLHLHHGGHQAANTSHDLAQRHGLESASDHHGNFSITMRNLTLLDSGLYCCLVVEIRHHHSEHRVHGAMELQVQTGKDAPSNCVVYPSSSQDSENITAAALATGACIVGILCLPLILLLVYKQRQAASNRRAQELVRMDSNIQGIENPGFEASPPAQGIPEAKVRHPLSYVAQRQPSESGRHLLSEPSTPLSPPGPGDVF
As to the kind of experiment: cell-based or functional assay.
Take B1: the “IC50, CPM (proliferation), SEB assay” value is -1.44 log10 of antibody concentration and the “IC50, Gamma (IFN-g), SEB assay” value is -0.35 log10 of antibody concentration.
As to B2, the “IC50, CPM (proliferation), SEB assay” value is -0.74 log10 of antibody concentration and the “IC50, Gamma (IFN-g), SEB assay” value was 1.69 log10 of antibody concentration.
Turning to B3, the “IC50, CPM (proliferation), SEB assay” value was -1.06 log10 of antibody concentration and the “IC50, Gamma (IFN-g), SEB assay” value is -1.05 log10 of antibody concentration.
The like results for B4 were, in that order, -1.12 log10 of antibody concentration and 0.05 log10 of antibody concentration.

Source of the values: WO2017175058A1 (dated 2017).
